The DeepSol protein solubility set

Assay: soluble on expression in E. coli; label from the status in PepcDB or PDB records

Row | Sequence | soluble on expression in E. coli
1 | MSLIPIVASSPSPLISGDGDDALTATAVALATTAVHAADDLKIALIYGKTGPLEAYAKQTETGLMMGLEYATKGTMTLDGRKIVVITKDDQSKPDLSKAALAEAYQDDGADIAIGTSSSAAALADLPVAEENKKILIVEPAVADQITGEKWNRYIFRTGRNSSQDAISNAVAIGKQGVTIATLAQDYAFGRDGVAAFKEALAKTGATLATEEYVPTTTTDFTAVGQRLFDALKDKPGKKIIWVIWAGGGDPLTKLQDMDPKRYGIELSTGGNILPALAAYKRLPGMEGATYYYYDIPKNPINEWLVTEHQKRFNAPPDFFTAGGFSAAMAVVTAVQKAKSTDTEKLIAAMEGMEFDTPKGKMVFRKEDHQALQSMYHFKVKVDPAVAWAVLEPVRELKIEEMNIPIKNKGIITITTDPNSSSVDKLAAALEHHHHHH | soluble
2 | MSLIRGVIGYTITPFTADGTLDLDALGTSIDSLIAGGVHAIAPLGSTGEGAYLSDSEWETVVRFSQARIAGRVPSVVSVSDLTTARTVQRARLAQACGATAVMVLPISYWKLTEAEVVAHYKAVGAAIDIPIMLYNNPGTSGTDLSVELILRILGEVPNVTMVKESTGDIQRMHRLFTATDGQVAFYNGCNPLTLEALVAGATGWCTAAPNLIPALNLALWDAVQQGDLAEARALFYRQYELLEYITRRGLPTTIKAGLKMLGQDVGAPRLPLQPLDAQGSNHLKSLLEGHHHHHH | soluble
3 | MSLIVSTIASHSSLQILLGAKKEGFKTRLYVSPKRRPFYSSLPIVDDLVVAEEMTSILNDDGIVVPHGSFVAYLGIEAIEKAKARFFGNRRFLKWETTFELQDKALEGAGIPRVEVVEPEDAKPDELYFVRIEGPRGGSGHFIVEGSELEERLSTLEEPYRVERFIPGVYLYVHFFYSPILERLELLGVDERVLIADGNARWPVKPLPYTIVGNRAIALRESLLPQLYDYGLAFVRTMRELEPPGVIGPFALHFAYDGSFKAIGIASRIDGGSNADHWYSELYWGERLSMGRRIARELRLAEEEDRLEEVVTEGHHHHHH | soluble
4 | MSLIWKRKITLEALNAMGEGNMVGFLDIRFEHIGDDTLEATMPVDSRTKQPFGLLHGGASVVLAESIGSVAGYLCTEGEQKVVGLEINANHVRSAREGRVRGVCKPLHLGSRHQVWQIEIFDEKGRLCCSSRLTTAILEGGSHHHHHH | soluble
5 | MSLIYGFIRDHSNEFAVEKMCQVLNVSRSGYYSWLNRKPGKRELTNKKLKLKIAEIYWQTRGRCGSPRIHKQLKKEGYHYNIKRIERLMRIMGLKAIQKRKFKRTTNSDNNLPLKNNLLKRNFSVTQPDKVWVSDITYIPTKEGWLYLSVVIDLYSRKVVGWSMDNHMTKRLVIDALEMAVLNRNPSRGLIFHSDRGSQYASHDFQKTLWKYGIISSMSRKGDCWDNAVAESFFATLKTELIFHNKYQSRAQAKRDIFEYIEIFYNRIRLHSSLDYKSPEDYEKERKTSKEGHHHHHH | not soluble
6 | MSLKAIFWDMDGTMVDSEPQWGIATYELSEAMGRRLTPELRELTVGSSLPRTMRLCAEHAGITLSDADYERYRAGMFARVHELFDESLVPNPGVTELLTELKALEIPMLVTTNTERDLATRSVAAVGNEFFIGSIAGDEVPTAKPAPDMYLEAARRVGFDPSECLVFEDSYNGMLGAVTAGCRVIGLHPEEVQAPEGVVPLRSLHGKNSFEGVTAEMVTAWYHQIEPAGVAKEGHHHHHH | soluble
7 | MSLKALVLTGTKQFEMQDVTTPTVKDDEVLVNTAYAGICGTDRALYAGLPGSADAVPPIVLGHENSGIVAAIGRNVTNVKVGDRVTVDPNIYCGECEYCRTDRPELCDNLSAVGVTRDGGLEESFTAPASVVYPIPDSVSLKAAATVEPISCAVHGVKLLDLTPYQKALVIGDGFMGQLFVQLLQAYGVHQVDFAGIVDEKLAFNKEKFGVTNTYNTTRDSIPADYDVVIEAVGLPQTQEQAVEATKKGAQVLMFGVGKPNQTFSMNTYEVYQKQLKIQGAFINPYAFEDSIALLASGQLDVESLISHEVSLEQVEDVLNGKVEHVSKAVVKVSEGHHHHHH | soluble
8 | MSLKAPVDFEQEVAPLLSQRCVSCHSPNIKKGELSLAGPEDLLANGYVVPGDPAGSYLLEVVSPAGDDPAAMPKLGDALAEPEVALLRRWIEQGAVWPDGFVIREASKADRSWWSLQPLADIHPPEVAAAPAAWRQNPIDRFVWAKLSEANLKPNSPADRRTLIRRATFDLTGLPPTAEEIDTFVASDSPDAYPQLIDRMLASPRYGERWGRHWLDVIRFGESRGFERNQIITNLWPFRDYVIRSINEDKPFDQFIREHLAGDVIAPNTPQVEVGSAFLVAGPYDDVGNQDPAQAAQIRANTIDEMIRASSEAFLGLTIGCARCHDHKFDVISQRDYYAMYATFAGVKHGERAVATSEQREGHHHHHH | not soluble
9 | MSLKDYRLFLIDLDGTIYRGKETIESGVRFVKRLDEAGLDYLFLTNNTTRTPQMVADKLAGHGVKTDVSKIYTPSMATASYILEKEAKRPIGVYIIGQIGLWKEILDRPEFYYDEENPDYVIVGMDTDLTYHKLMVATRCIHRGAVFIGTNSDQNLPVGKELRPGNGSICAALEVASGQKPLFIGKPEAIIVNRALDLAGVKAEEALIVGDNYPTDIMAGINSGVDTLLTLTGVTQKADLAGLTPPTYLVNDLDEFSEGHHHHHH | soluble
10 | MSLKEIGPNSLLLEDSHSLSQLLKKNYRWYSPIFSPRNVPRFADVSSITESPETLKAIRDFLVERYRTMSPAPTHILGFDARGFLFGPMIAVELGIPFVLMRKADKNAGLLIRSEPYEKEYKEAAPEVMTIRHGSIGKNSRVVLIDDVLATGGTALSGLQLVEASGAEVVEMVSILTIPFLKAAERIHSTAGGRYKNVRFIGLLSEDVLTEANCGDLNDYTGPRVLSCSDLLVNQ | soluble
11 | MSLKEPRWRDPELPEVLAMLRHPVDPVKANAAAYLQHLCFENEGVKRRVRQLRGLPLLVALLDHPRAEVRRRACGALRNLSYGRDTDNKAAIRDCGGVPALVRLLRAARDNEVRELVTGTLWNLSSYEPLKMVIIDHGLQTLTHEVIVPHSGWEREPNEDSKPRDAEWTTVFKNTSGCLRNVSSDGAEARRRLRECEGLVDALLHALQSAVGRKDTDNKSVENCVCIMRNLSYHVHKEVPGADRYQEAEPGPLGSAVGSQRRRRDDASCFGGKKAKEEWFHQGKKDGEMDRNFDTLDLPKRTEAAKGFELLYQPEVVRLYLSLLTESRNFNTLEAAAGALQNLSAGNWMWATYIRATVRKERGLPVLVELLQSETDKVVRAVAIALRNLSLDRRNKDLIGSYAMAELVRNVRNAQAPPRPGACLEEDTVVAVLNTIHEIVSDSLDNARSLLQARGVPALVALVASSQSVREAKAASHVLQTVWSYKELRGTLQKDGWTKARFQSAAATAKGPKEGHHHHHH | not soluble
12 | MSLKFHSPYLPLIKLIIVVKTPLELITDNLLPTIKVLIAKKLRELGMSQNRIAILLGVTQPAVKQYLDEDENFQYEKLRELGLKDEEIEDITQDLVNILNKNDTKSAMYYITDIGLRYLSELKFCKFHKENDKYIPQDCDICRYIYRQNEEERMEIALSMLQNEFVTPLIPEVLSNLAFARKNPKGINDVLAVEGRITKVKGIPTPASNPSWGSSKHLATILLKIMQKDPSIRSIMNIKYDKKIDEALHFLNFRIVYVGPSDENDDESISNLIYSAFYSGIDCVVHLGGKGLEPITYVLGKDPVEVVKKVIEIGKKYRELTENEGHHHHHH | soluble
13 | MSLKFTAIDFETANEKRNSPCSIGIVVVKDGHVVEKSHHLIRPKEMRFMPINIGIHGIRPAMVEKEPEFDKVWEKIKHYFDDTLVIAHNASFDISVLRKSAELYNIELPEFNYICTMKLARNFYKGIENAKLNTVNNFLGYEFRHHDALYDALACSNIMLSISKELKCKDITEISKLLGVTVGKVDSKGYKPSQTKGIAVRTSDRIYFSKKKSAFERLKADEFKNEVVVFTGRLDSMSRDEAMGLVRRLGGTAGSSVTKKTTILVTNMKNIKNLRREEMSNKLKRASDLNARGQNIKFLNEEEFLKIKEGHHHHHH | soluble
14 | MSLKGGYAVVDFKVPNERDNASTTKLEVNFPTDHPLASVMPQPVPGWKAEVTKAKPAKPLESHGKQITEVVTKVTWTADGKGVEPGYFQKFPVSIGALPEDADQLVFKAIQTYSNKEVVRWIEVPQEGQEEPETPAPVLKLSAAEDDAHGASEGHHHHHH | soluble
15 | MSLKGTPGNVPAARTGIEITPAHRAFFHALPKIELHCHLLGAVRHDTFVALAERSGAPIERAEIDAFYARGEKPVGVLHVLRALDRYLLTQPDDLRRIAYEYLEDAAAYNVRHAEFFWNPTGTVHVSGIAYADAQAAIVTGIRDAARDFGIGARLIPSIDREQDPDEAVAIVEWMKANRADEVAGLGIDYRENDRPPELFWKAYRNARAAGFRTTAHAGEFGMPWRNVETAVDLLQVDRVDHGYTIVDNPELCARYAERGIVFTVVPTNSYYLRTLPPEQWAERHPMRKMPGLGLKIHPNTDDPTLHKVNPSEAWELMFSHFGFTVAELKQFMLNGIDGAWVDDTTKAAWRAAWAPEFDVLAATLAAGEGHHHHHH | soluble
16 | MSLKGTYEKSIHIVKKNKYKTIDVVFGNLKEGIPLAEKSINHGTRIIISRGGTYNMLKATYNIPIVEIKVDAYDIIKSYKEVKNSNEPFGIIGFNNVIYGFDIIEEILNKKITMIEIEKEEEIYDAIEKYRKKGINTYIGDTTVAHIVKRLNCKGILIESREENILRAIQQAEQILEATKDEQKREGHHHHHH | not soluble
17 | MSLKHPDPAQKVEGTTATTPTKVAAFFDLDKTIIAMSSTYAYGREFMNSGLISPVEALQLSLAQATYMFAGHTSEQMDNTRDQLTAMIRGWEVQQVRSIAEETMHSVVTPTIYAEARELIEHHQELGHDVIIISASVKELVEPIARELGVHKTVTTVLEAHDGMYTGEVLFYCKGDAKAQSILDLAEANNYDLSLSFAYSDSFTDLPMLEAVGNPAAVNPDRALKKIALEQGWKILSFKNPEPLFQEGHHHHHH | soluble
18 | MSLKIAIVNDMPMAVEALRRALAFDPSHEVVWVATNGAEAVKYCAELTPDLILMDLIMPVMDGVEATRRIMAESPCAIVIVTVDRQQNVHRVFEAMGHGALDVVDTPALGAGNAQEAAAPLLRKILNIGWLIGQEGHHHHHH | not soluble
19 | MSLKIDAVDLFYLSMPEVTDAADGSQDALLVRVAAGGHIGWGECEAAPLPSIAAFVCPKSHGVCRPVSDSVLGQRLDGPDDIARIAALVGYNSMDLLQAPHMLSGIEMALWDLLGRRLSAPAWALLGYSASHGKRPYASLLFGDTPQETLERARAARRDGFAAVKFGWGPIGRGTVAADADQIMAAREGLGPDGDLMVDVGQIFGEDVEAAAARLPTLDAAGVLWLEEPFDAGALAAHAALAGRGARVRIAGGEAAHNFHMAQHLMDYGRIGFIQIDCGRIGGLGPAKRVADAAQARGITYVNHTFTSHLALSASLQPFAGLEADRICEYPAAPQQLALDITGDHIRPDAEGLIRAPEAPGLGLQVAASALRRYLVETEIRIGGQLIYRTPQLEGHHHHHH | soluble
20 | MSLKIILSIFLAFFLSACGVKLSLPKEVDLTQEQMKDLNLTYDWYRSYDNAKLNEFLNFVLLNNSDINIARKTLLSALARADLIDYDLYPTLSGNLGFGADKDLNSGKQSKNFNNSLNLSYELDIYGKLRDSASASEFSAKASAYDLENLKISMINTALNDVFELAYFNDVDKLLRAYLSNLEQMKELYNYKYKLGKIEELDLLNIEQSLLRAKQNLLSNDQNRNLLIKNLQDLLARQEGFAYIEYFKTLSEGHHHHHH | soluble
21 | MSLKIKALLLDIDGTMVFKGHAIPGAAEAIEAARMAGLQLRFLTNITGQLPSTIAEDLQRHGINVRAEEIHTASTSCARYLKSLGDVSCFFLMPESVNSMFEGIARDHVSPDVVVIGDIGESFDYACLNQAFGYLHKGARLVVPHKNLFWFDPRGVRLDCGAFILGLEAASGKQALVTGKPSPVFFTSVMDSLGVKPSQTMIIGDDLLTDIAAAQHLEVAHALVLTGKGASYTESDVPRPERLWPSIAELSRFLAQSGHNTEGHHHHHH | soluble
